The source of these data is PMC3605031, “Mitogen-Activated Protein Kinase p38b Interaction with Delta Class Glutathione Transferases from the Fruit Fly, Drosophila melanogaster” (Journal of Insect Science, 2012).

Like-named read-outs stand apart in the source and are kept apart here.

In assay [1] the target is Drosophila melanogaster p38b mitogen-activated protein kinase (D. melanogaster) (UniProt O61443).
Assay [2] has the same target. The source holds these as a separate data set.
The target is the same in assay [3]. The source holds these as a separate data set.

Sequence of UniProt O61443 (O61443 whole entry): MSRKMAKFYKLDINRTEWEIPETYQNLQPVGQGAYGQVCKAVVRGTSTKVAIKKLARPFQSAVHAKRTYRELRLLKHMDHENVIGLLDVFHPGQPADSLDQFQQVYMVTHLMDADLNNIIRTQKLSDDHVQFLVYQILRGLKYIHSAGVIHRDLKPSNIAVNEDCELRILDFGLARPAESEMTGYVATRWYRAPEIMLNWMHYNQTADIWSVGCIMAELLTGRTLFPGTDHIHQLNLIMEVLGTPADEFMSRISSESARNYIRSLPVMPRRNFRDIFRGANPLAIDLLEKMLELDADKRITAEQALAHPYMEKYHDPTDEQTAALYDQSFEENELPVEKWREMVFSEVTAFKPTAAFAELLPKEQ

“Drosophila melanogaster Delta class glutathione transferase DmGSTD11b (enzyme)”: in assay [1], the fold change of p38b kinase activity toward ATF2 with GST at 1:1 molar ratio (ADP Quest assay) was determined as 7.1 fold and the fold change of p38b kinase activity toward jun with GST at 1:1 molar ratio (ADP Quest assay) amounted to 10 fold.

B1: Drosophila melanogaster Delta class glutathione transferase DmGSTD8 (enzyme)
chain: MDFYYHPCSAPCRSVIMTAKALGVDLNMKLLKVMDGEQLKPEFVKLNPQHCIPTLVDDGFSIWESRAILIYLVEKYGADDSLYPSDPQKKAVVNQRLYFDMGTLFQSFVEAIYPQIRNNHPADPEAMQKVDSAFGHLDTFLEDQEYVAGDCLTIADIALLASVSTFEVVDFDIAQYPNVARWYENAKEVTPGWEENWDGVQLIKKLVQERNE
For the molecule B1, in assay [1], the fold change of p38b kinase activity toward ATF2 with GST at 1:1 molar ratio (ADP Quest assay) was found to be 6.5 fold and the fold change of p38b kinase activity toward jun with GST at 1:1 molar ratio (ADP Quest assay) was 8.1 fold. Besides, in assay [2], the increase of GST activity toward DCNB after incubation with p38b at 1:1 molar ratio was found to be 30 % increase.

B2: Drosophila melanogaster Delta class glutathione transferase DmGSTD3 (enzyme)
chain: MVGKALGLEFNKKIINTLKGEQMNPDFIKINPQHSIPTLVDNGFTIWESRAILVYLVEKYGKDDALYPKDIQKQAVINQRLYFDMALMYPTLANYYYKAFTTGQFGSEEDYKKVQETFDFLNTFLEGQDYVAGDQYTVADIAILANVSNFDVVGFDISKYPNVARWYDHVKKITPGWEENWAGALDVKKRIEEKQNAAK
For B2, in assay [1], the fold change of p38b kinase activity toward ATF2 with GST at 1:1 molar ratio (ADP Quest assay) amounted to 1.8 fold and the fold change of p38b kinase activity toward jun with GST at 1:1 molar ratio (ADP Quest assay) came to 2.6 fold.

B3: Drosophila melanogaster Delta class glutathione transferase DmGSTD2 (enzyme)
chain: MDFYYMPGGGGCRTVIMVAKALGLELNKKLLNTMEGEQLKPEFVKLNPQHTIPTLVDNGFSIWESRAIAVYLVEKYGKDDYLLPNDPKKRAVINQRLYFDMGTLYESFAKYYYPLFRTGKPGSDEDLKRIETAFGFLDTFLEGQEYVAGDQLTVADIAILSTVSTFEVSEFDFSKYSNVSRWYDNAKKVTPGWDENWEGLMAMKALFDARKLAAK
Regarding B3, the increase of GST activity toward DCNB after incubation with p38b at 1:1 molar ratio in assay [2] worked out at 37 % increase. The decrease of GST activity toward CDNB after incubation with p38b at 1:1 molar ratio in assay [3] was 5 % decrease.

B4: Drosophila melanogaster Delta class glutathione transferase DmGSTD5 (enzyme)
chain: MDFYYSPRGSGCRTVIMVAKALGVKLNMKLLNTLEKDQLKPEFVKLNPQHTIPTLVDNGFSIWESRAIAVYLVEKYGKDDTLFPKDPKKQALVNQRLYFDMGTLYDSFAKYYYPLFHTGKPGSDEDFKKIESSFEYLNIFLEGQNYVAGDHLTVADIAILSTVSTFEIFDFDLNKYPNVARWYANAKKVTPGWEENWKGAVELKGVFDARQAAAKQ
Regarding B4, in assay [1], the fold change of p38b kinase activity toward ATF2 with GST at 1:1 molar ratio (ADP Quest assay) was found to be 1.4 fold and the fold change of p38b kinase activity toward jun with GST at 1:1 molar ratio (ADP Quest assay) stood at 1.6 fold. Moreover, in assay [2], the decrease of GST activity toward CDNB after incubation with p38b at 1:1 molar ratio is 10 % decrease and the decrease of GST activity toward DCNB after incubation with p38b at 1:1 molar ratio was found to be 40 % decrease. In addition, in assay [3], the decrease of GST activity toward CDNB after incubation with p38b at 1:1 molar ratio, as told in the discussion came out at 8 % decrease; the decrease of GST activity toward DCNB after incubation with p38b at 1:1 molar ratio, as told in the discussion amounted to 36 % decrease; the fold change of p38b kinase activity toward jun with GST at 1:1 molar ratio (ADP Quest assay), as told in the discussion was 1.5 fold.

B5: Drosophila melanogaster Delta class glutathione transferase DmGSTD7 (enzyme)
chain: MPNLDLYNFPMAPASRAIQMVAKALGLELNSKLINTMEGDQLKPEFVRINPQHTIPTLVDNGFVIWESRAIAVYLVEKYGKPDSPLYPNDPQKRALINQRLYFDMGTLYDALTKYFFLIFRTGKFGDQEALDKVNSAFGFLNTFLEGQDFVAGSQLTVADIVILATVSTVEWFSFDLSKFPNVERWLKNAPKVTPGWEQNLESLQQGKKFLQDLQAAKEKEVKA
Take B5: in assay [2], the increase of GST activity toward DCNB after incubation with p38b at 1:1 molar ratio came to 10 % increase.
